We go through 3 molecules from patent publication US20190389961A1 (INNATE PHARMA, published 2019).

Assay [1] concerns the target T1, human CD39 mutant 5 (human, UniProt P49961 1-510).
T1 construct: Expressed on Hek-293T cells; also called M5
T1 chain: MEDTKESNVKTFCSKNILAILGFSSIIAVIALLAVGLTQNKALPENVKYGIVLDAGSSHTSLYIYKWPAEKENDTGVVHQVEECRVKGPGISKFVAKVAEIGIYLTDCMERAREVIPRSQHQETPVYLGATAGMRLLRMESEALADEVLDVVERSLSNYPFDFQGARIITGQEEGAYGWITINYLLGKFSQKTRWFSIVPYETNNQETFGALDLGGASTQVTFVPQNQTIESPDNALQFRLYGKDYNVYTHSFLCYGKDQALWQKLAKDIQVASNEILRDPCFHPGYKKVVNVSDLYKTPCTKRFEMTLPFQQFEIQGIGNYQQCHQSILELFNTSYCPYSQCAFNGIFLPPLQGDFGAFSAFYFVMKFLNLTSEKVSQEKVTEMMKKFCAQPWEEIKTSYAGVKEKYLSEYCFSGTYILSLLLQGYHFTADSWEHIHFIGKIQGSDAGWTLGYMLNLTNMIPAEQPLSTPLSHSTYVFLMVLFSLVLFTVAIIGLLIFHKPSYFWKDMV
The assay is described as follows: flow cytometry on Hek-293T cells expressing CD39 mutant 5 (panel M5); unstained (US) median 8,98; antibody concentration not shown. How it is done: (§1) Mutants were transfected in Hek-293T cells, as shown in the table 1, using numbering of SEQ ID NO: 1. […] Mutant 19 includes substitutions at residues R138, M139 and E142.
(§2) In order to define the epitopes of the further anti-CD39 antibodies of Example 5, they were tested for loss of binding to the panel of CD39 mutants as described in Example 1 and Table 1. Mutants were transfected in Hek-293T cells, as shown in the table 1, using numbering of SEQ ID NO: 1.Dose-ranges of test antibodies (10-2.5-0.625-0.1563-0.0391-0.0098-0.0024-0.0006 μg/ml) are tested on the 20 generated mutants by flow cytometry.
On the technique in general: In flow cytometry, cells or beads pass a laser one at a time.

For assay [2], the target named is T2, human CD39 (vascular CD39, NTPDase1) expressed at the surface of cells (human, UniProt P49961 1-510).
T2 construct: also called huCD39; CHO-huCD39
T2 sequence: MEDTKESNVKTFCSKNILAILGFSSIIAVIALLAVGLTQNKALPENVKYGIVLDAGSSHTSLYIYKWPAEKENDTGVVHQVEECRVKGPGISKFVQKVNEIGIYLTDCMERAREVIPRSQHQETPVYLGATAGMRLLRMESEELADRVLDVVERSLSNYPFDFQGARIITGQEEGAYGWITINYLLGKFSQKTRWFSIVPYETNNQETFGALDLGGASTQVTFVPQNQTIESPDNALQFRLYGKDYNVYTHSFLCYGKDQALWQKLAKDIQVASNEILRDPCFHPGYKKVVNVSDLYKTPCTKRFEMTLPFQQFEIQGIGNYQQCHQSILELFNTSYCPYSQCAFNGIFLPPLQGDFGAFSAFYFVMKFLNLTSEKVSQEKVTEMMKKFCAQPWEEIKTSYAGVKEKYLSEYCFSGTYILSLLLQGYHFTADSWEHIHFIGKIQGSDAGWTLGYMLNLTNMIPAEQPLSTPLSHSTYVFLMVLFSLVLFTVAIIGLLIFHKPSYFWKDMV
The assay is described as follows: flow cytometry on Hek-293T cells expressing wild-type CD39 (panel WT); unstained (US) median 10,3; antibody concentration not shown. On the procedure: as §1, §2

Assay [3] addresses T3, human CD39 mutant 19 (human, UniProt P49961 1-510).
T3 construct: Expressed on Hek-293T cells; also called M19
T3 chain: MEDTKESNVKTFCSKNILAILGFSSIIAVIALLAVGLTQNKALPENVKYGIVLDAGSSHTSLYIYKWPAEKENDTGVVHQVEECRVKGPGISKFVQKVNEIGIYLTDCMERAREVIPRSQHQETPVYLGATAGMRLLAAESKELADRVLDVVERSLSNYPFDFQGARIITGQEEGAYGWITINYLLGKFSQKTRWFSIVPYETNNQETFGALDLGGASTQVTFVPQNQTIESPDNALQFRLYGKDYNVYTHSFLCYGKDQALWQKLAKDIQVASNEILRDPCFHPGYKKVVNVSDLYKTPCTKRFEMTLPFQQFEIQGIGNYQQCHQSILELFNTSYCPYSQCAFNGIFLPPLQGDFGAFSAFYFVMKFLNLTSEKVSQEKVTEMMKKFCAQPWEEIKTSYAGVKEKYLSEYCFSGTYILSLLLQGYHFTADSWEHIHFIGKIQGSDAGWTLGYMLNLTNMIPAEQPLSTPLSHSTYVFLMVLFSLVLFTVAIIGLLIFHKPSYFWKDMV
The assay can be described thus: flow cytometry on Hek-293T cells expressing CD39 mutant 19 (panel M19); unstained (US) median 8,98; antibody concentration not shown. On the procedure:
as §1, §2

The target in assay [4] is T4, human CD39 mutant 15 (human, UniProt P49961 1-510).
T4 construct: Expressed on Hek-293T cells; also called M15
T4 chain: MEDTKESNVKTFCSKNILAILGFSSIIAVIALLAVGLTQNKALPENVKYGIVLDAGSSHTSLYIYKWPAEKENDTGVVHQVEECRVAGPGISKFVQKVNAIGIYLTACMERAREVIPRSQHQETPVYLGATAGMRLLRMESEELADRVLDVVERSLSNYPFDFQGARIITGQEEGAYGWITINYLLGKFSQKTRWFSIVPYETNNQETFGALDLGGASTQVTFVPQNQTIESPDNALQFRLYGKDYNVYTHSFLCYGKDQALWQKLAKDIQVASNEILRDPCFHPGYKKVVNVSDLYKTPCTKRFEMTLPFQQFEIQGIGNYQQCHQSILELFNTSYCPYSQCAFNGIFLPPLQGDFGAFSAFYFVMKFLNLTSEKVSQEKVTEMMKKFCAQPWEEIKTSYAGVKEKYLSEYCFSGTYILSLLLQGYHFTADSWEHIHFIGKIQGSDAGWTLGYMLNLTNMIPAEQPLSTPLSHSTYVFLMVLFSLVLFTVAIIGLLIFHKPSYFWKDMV
The assay is described as follows: flow cytometry on Hek-293T cells expressing CD39 mutant 15 (panel M15); unstained (US) median 8,98; antibody concentration not shown. On the procedure: as §1, §2

Assay [5] deals with T4, human CD39 mutant 15. The assay can be described thus: flow cytometry on Hek-293T cells expressing CD39 mutant 15 (panel M15). How it is done:
as §2

Assay [6] concerns the target T1, human CD39 mutant 5. The assay can be described thus: flow cytometry, Hek-293T cells expressing the mutant. On the procedure: as §2
Assay [7] deals with T3, human CD39 mutant 19. The description is as above. How it is done: as §2
For assay [8], the target named is T4, human CD39 mutant 15. The assay is described as above. How it is done: as §2
The target of assay [9] is T5, human CD39 mutant 11 (human, UniProt P49961 1-510).
T5 construct: Expressed on Hek-293T cells
T5 sequence: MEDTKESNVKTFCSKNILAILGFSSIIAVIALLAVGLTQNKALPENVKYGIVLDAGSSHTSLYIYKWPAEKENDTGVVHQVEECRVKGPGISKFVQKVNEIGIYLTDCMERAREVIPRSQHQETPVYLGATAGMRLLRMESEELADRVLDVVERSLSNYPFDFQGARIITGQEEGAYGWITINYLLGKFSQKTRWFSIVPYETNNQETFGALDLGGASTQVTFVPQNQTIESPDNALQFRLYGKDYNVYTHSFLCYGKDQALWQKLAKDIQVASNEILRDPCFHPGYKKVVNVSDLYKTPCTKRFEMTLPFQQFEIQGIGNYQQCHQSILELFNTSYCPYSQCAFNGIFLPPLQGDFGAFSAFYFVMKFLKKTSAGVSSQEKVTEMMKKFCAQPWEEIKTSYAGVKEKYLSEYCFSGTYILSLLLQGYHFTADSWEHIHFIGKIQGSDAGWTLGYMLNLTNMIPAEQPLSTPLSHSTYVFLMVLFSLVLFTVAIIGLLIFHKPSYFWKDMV
Described as above. How it is done:
as §2

The target of assay [10] is T3, human CD39 mutant 19. The assay is described as follows: flow cytometry on Hek-293T cells expressing CD39 mutant 19 (panel M19). How it is done:
as §1, §2

Assay [11] deals with T1, human CD39 mutant 5. The assay is described as follows: flow cytometry on Hek-293T cells expressing CD39 mutant 5 (panel M5). How it is done:
as §2

B1: antibody I-396 (antibody, V domains shown)
VH: EVQLQQSGAELVKPGASVKLSCIVSGFNIKDTYINWVKQRPEQGLEWIGRIDPANGNTKYDPKFQGKATMTSDTSSNTAYLHLSSLTSDDSAVYYCARWGYDDEEADYFDSWGQGTTLTVSS
VL: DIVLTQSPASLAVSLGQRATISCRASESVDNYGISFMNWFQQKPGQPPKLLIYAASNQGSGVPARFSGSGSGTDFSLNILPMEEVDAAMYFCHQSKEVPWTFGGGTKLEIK
On to B1, for which the “Median : Comp-Alexa Fluor 647-A” value in assay [1] was 8190; in [2] it was 4340; in assay [3], 8890; in assay [4] it was 35.9. For the same molecule, the binding result in [5] is given as “no binding”.

B2: antibody I-399 (antibody, V domains shown)
VH: PVQLQQPGAEVVMPGASVKLSCKASGYTFTSFWMNWMRQRPGQGLEWIGEIDPSDFYTNSNQRFKGKATLTVDKSSSTAYMQLSSLTSEDSAVYFCARGDFGWYFDVWGTGTSVTVSS
VL: EIVLTQSPTTMTSSPGEKITFTCSASSSINSNYLHWYQQKPGFSPKLLIYRTSNLASGVPTRFSGSGSGTSYSLTIGTMEAEDVATYYCQQGSSLPRTFGGGTKLEIK
Consider B2, for which the binding result in [6] was “binds”; in [7], “binds”; in assay [8] it was “binds”; in assay [9], “no binding (tested: dose range up to 10 µg/ml)”.

B3: antibody I-395 (antibody, V domains shown)
VH: EVQLQQSGPELVKPGASVRMSCKASGYTFTDYNMHWVKKNHGKGLEWIGYINPNNGGTTYNQKFKGKATLTVNTSSKTAYMELRSLTSEDSAVYYCTRGGTRFASWGQGTLVTVSA
VL: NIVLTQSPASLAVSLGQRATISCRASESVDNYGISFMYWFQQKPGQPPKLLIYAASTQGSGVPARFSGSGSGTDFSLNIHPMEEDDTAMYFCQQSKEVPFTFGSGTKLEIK
Turning to B3, the binding result in assay [10] and in [11] was “no binding” throughout. For the same molecule, the “Median : Comp-Alexa Fluor 647-A” value is 52.6 in [1], 4240 in assay [2], 15.4 in assay [3] and 5750 in assay [4].
